From publication PMC8998557, “A Novel Family of Winged-Helix Single-Stranded DNA-Binding Proteins from Archaea” come the findings set out here.

Data set [1] addresses T1, Sul7s (Sulfolobus islandicus Rey15A, UniProt F0NBY5 1-59).
T1 sequence: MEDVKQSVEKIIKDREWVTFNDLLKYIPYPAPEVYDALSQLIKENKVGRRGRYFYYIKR
The experiment in a line: BLI; BLI: 50 mM Tris-Cl pH 7.5, 100 mM NaCl, 1 mM EDTA, 0.02% Tween-20, 30 C; NMR: 20 mM potassium phosphate pH 7.0, 30 mM NaCl, 0.02% NaN3, 298 K. The following applies: protein: recombinant, tags: untagged.

Another data set addresses T2, Sul7s W17A (Sulfolobus islandicus Rey15A, UniProt F0NBY5 1-59, W17A).
T2 sequence: T1 sequence with W17A
The description is as above. The following applies: protein: recombinant; tags: untagged; label: 5'-biotin.

In the next data set the target is T3, Sul7s D3A (Sulfolobus islandicus Rey15A, UniProt F0NBY5 1-59, D3A).
T3 sequence: T1 sequence with D3A
Described as above. The following applies: protein: recombinant; tags: untagged; label: 5'-biotin.

For another data set, the target named is T4, Sul7s K43A (Sulfolobus islandicus Rey15A, UniProt F0NBY5 1-59, K43A).
T4 sequence: T1 sequence with K43A
The data set is described as above. The following applies: protein: recombinant; tags: untagged; label: 5'-biotin.

In a further data set the target is T5, Sul7s N21A (Sulfolobus islandicus Rey15A, UniProt F0NBY5 1-59, N21A).
T5 sequence: T1 sequence with N21A
The description is as above. The following applies: protein: recombinant; tags: untagged; label: 5'-biotin.

The next data set has as its target T6, Sul7s Y56A (Sulfolobus islandicus Rey15A, UniProt F0NBY5 1-59, Y56A).
T6 sequence: T1 sequence with Y56A
The description is as above. The following applies: protein: recombinant; tags: untagged; label: 5'-biotin.

A further data set has as its target T7, Sul7s E33A (Sulfolobus islandicus Rey15A, UniProt F0NBY5 1-59, E33A).
T7 sequence: T1 sequence with E33A
The description is as above. The following applies: protein: recombinant; tags: untagged; label: 5'-biotin.

The target of the next data set is T8, Sul7s K13A (Sulfolobus islandicus Rey15A, UniProt F0NBY5 1-59, K13A).
T8 sequence: T1 sequence with K13A
Described as above. To be noted: protein: recombinant; tags: untagged; label: 5'-biotin.

A further data set deals with T9, Sul7s K58A (Sulfolobus islandicus Rey15A, UniProt F0NBY5 1-59, K58A).
T9 sequence: T1 sequence with K58A
Described as above. To be noted: protein: recombinant; tags: untagged; label: 5'-biotin.

A further data set addresses T10, Sul7s T19G (Sulfolobus islandicus Rey15A, UniProt F0NBY5 1-59, T19G).
T10 sequence: T1 sequence with T19G
Described as above. The following applies: protein: recombinant; tags: untagged; label: 5'-biotin.

The target of the next data set is T11, Sul7s R15A (Sulfolobus islandicus Rey15A, UniProt F0NBY5 1-59, R15A).
T11 sequence: T1 sequence with R15A
The data set is described as above. To be noted: protein: recombinant; tags: untagged; label: 5'-biotin.

A further data set deals with T12, Sul7s D36A (Sulfolobus islandicus Rey15A, UniProt F0NBY5 1-59, D36A).
T12 sequence: T1 sequence with D36A
The data set can be described thus: BLI; text calls decrease marginal, in conflict with table value; BLI: 50 mM Tris-Cl pH 7.5, 100 mM NaCl, 1 mM EDTA, 0.02% Tween-20, 30 C; NMR: 20 mM potassium phosphate pH 7.0, 30 mM NaCl, 0.02% NaN3, 298 K. To be noted: protein: recombinant; tags: untagged; label: 5'-biotin. On the technique in general: Biolayer interferometry detects binding as a change in optical thickness at a sensor tip.

The next data set addresses T13, Sul7s R52A (Sulfolobus islandicus Rey15A, UniProt F0NBY5 1-59, R52A).
T13 sequence: T1 sequence with R52A
The experiment in a line: BLI; barely detected up to 80 uM protein; BLI: 50 mM Tris-Cl pH 7.5, 100 mM NaCl, 1 mM EDTA, 0.02% Tween-20, 30 C; NMR: 20 mM potassium phosphate pH 7.0, 30 mM NaCl, 0.02% NaN3, 298 K. The following applies: protein: recombinant; tags: untagged; label: 5'-biotin.

A further data set addresses T14, Sul7s R59A (Sulfolobus islandicus Rey15A, UniProt F0NBY5 1-59, R59A).
T14 sequence: T1 sequence with R59A
The description is as above. The following applies: protein: recombinant; tags: untagged; label: 5'-biotin.

The target in another data set is T15, Sul7s R49A (Sulfolobus islandicus Rey15A, UniProt F0NBY5 1-59, R49A).
T15 sequence: T1 sequence with R49A
The description is as above. To be noted: protein: recombinant; tags: untagged; label: 5'-biotin.

In data set [2] the target is T1, Sul7s. The experiment in a line: NMR; 0.7 mM 15N/13C protein, HSQC titration; BLI: 50 mM Tris-Cl pH 7.5, 100 mM NaCl, 1 mM EDTA, 0.02% Tween-20, 30 C; NMR: 20 mM potassium phosphate pH 7.0, 30 mM NaCl, 0.02% NaN3, 298 K. To be noted: protein: recombinant; tags: untagged.

Residue numbers refer to the chain shown, from its start.

For orientation: Kd means the equilibrium constant for the complex coming apart. Take CTGGGGGCTGGGGGCTGGGGGCTGGGGGCT (ssDNA) [G-rich30]: the Kd in the data set with Sul7s [1] (label: 5'-biotin) was found to be 17.5 ± 4.8 µM.

B1: D30 (dsDNA)
DNA 1: TTTCTACCCTTTGGTGCTAATGCCCATACT
DNA 2: AGTATGGGCATTAGCACCAAAGGGTAGAAA
In the case of B1, the equilibrium dissociation constant (Kd) with Sul7s [1] (label: 5'-biotin on strand 1, blunt) is 76.8 ± 16.9 µM.
Regarding TTTTTTTTTTTTTTTTTTTTTTTTTTTTTT (ssDNA) [T30], the dissociation constant Kd with Sul7s [1] (label: 5'-biotin) was determined as 1.19 ± 0.3 µM.
In the case of TTTCTACCCTTTGGTGCTAATGCCCATACT (ssDNA) [S30 (S30-F)], the equilibrium dissociation constant (Kd) worked out at 10.7 µM with Sul7s W17A; 5.62 ± 0.95 µM in the data set with Sul7s [1] (label: 5'-biotin); 6.01 µM with Sul7s D3A; 27.9 µM in the data set with Sul7s K43A; 8.92 µM with Sul7s N21A; 15.6 µM with Sul7s Y56A. Moreover, the dissociation constant Kd was 1.21 µM in the data set with Sul7s E33A; 30.4 µM with Sul7s K13A; 26.9 µM with Sul7s K58A; 14.1 µM in the data set with Sul7s T19G; 4.67 µM with Sul7s R15A; 88.3 µM with Sul7s D36A. The binding result in the data set with Sul7s R52A, in the data set with Sul7s R59A and in the data set with Sul7s R49A was “no binding” in each case.
As for GTAGTCAGACACAGTAGTTC (ssDNA) [S20-F], in the data set with Sul7s [2], the binding result is “binds”.
